# Patent publication US7202050
# T1: TMR-Asp-Glu-Ser-Glu-Glu-Glu-Asp-Lys(Nε-Flsn)-COOH reporter peptide (casein kinase II substrate peptide), unphosphorylated (not fully specified)
# T1 chain: DESEEEDK
# B1: Human casein kinase II (CKII) (protein)
# chain: MSGPVPSRARVYTDVNTHRPREYWDYESHVVEWGNQDDYQLVRKLGRGKYSEVFEAINITNNEKVVVKILKPVKKKKIKREIKILENLRGGPNIITLADIVKDPVSRTPALVFEHVNNTDFKQLYQTLTDYDIRFYMYEILKALDYCHSMGIMHRDVKPHNVMIDHEHRKLRLIDWGLAEFYHPGQEYNVRVASRYFKGPELLVDYQMYDYSLDMWSLGCMLASMIFRKEPFFHGHDNYDQLVRIAKVLGTEDLYDYIDKYNIELDPRFNDILGRHSRKRWERFVHSENQHLVSPEALDFLDKLLRYDHQSRLTAREAMEHPYFYTVVKDQARMGSSSMPGGSTPVSSANMMSGISSVPTPSPLGPLAGSPVIAAANPLGMPVPAAAGAQQ
# Target: T1, TMR-Asp-Glu-Ser-Glu-Glu-Glu-Asp-Lys(Nε-F …)
protein,measurement,value
B1,"phosphorylation of the peptide by CKII, HPLC analysis",Phosphorylation of the peptide by CKII was confirmed by incubation of the peptide with kinase
